Assay [1] deals with T1, human tumor necrosis factor-α (R & D Co., Catalog Number: 210-TA-050) (human, UniProt P01375 77-233). The assay can be described thus: cell-based or functional assay.
In assay [2] the target is T1, human tumor necrosis factor-α (R & D …). The experiment in a line: cell-based or functional assay. This is another data set of the same source.
The target is the same in assay [3]. The experiment in a line: ELISA, plate coated with human TNF-α, Fab titrated, anti-human C-Kappa-HRP. A general note: An ELISA detects its analyte on a solid surface through an enzyme-linked reagent.
The target is the same in assay [4]. The assay can be described thus: BLI, Octet RED 96, biotin-hTNF-α on streptavidin sensor, antibody in solution. The protocol:
hTNF-α (R & D Co., 210-TA-050) and NHS-LCLC-biotin (Catalog Number: 21338, purchased from Thermo-fisher Co.,) were mixed uniformly at a molar ratio of 1:3 and kept at room temperature for 1 hour. Then, the remaining NHS-LCLC-biotin was removed by a PD-10 desalting column (Catalog Number: 17-0851-01, purchased from GE Co.,). The final conjugate products obtained were 50 μg/ml of biotin-hTNF-α.
In general terms: BLI is a label-free optical method that tracks binding on a fibre tip over time.

T1 sequence (P01375 77-233 limits assumed): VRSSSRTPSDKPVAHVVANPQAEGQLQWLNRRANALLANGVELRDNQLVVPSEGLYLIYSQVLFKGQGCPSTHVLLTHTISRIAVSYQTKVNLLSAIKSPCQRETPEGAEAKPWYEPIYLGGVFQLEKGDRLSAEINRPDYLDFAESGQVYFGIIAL

B1: KS04 (antibody, human IgG1, kappa, V domains shown)
VH: QVQLVESGGGLVKPGGSLRLSCAASGFTFSNAWMNWVRQAPGKGLEWVAEIRSKSINSATHYAESVKGRFTISRDNSKKTLYLEMNSLRVEDTAVYYCSRNYYGSTYDYWGQGTTLTVSS
VL: EIVLTQSPDFQSVTPKEKVTITCRASQSIYSSLHWYQQKPDQSPKLLIKFASQSVSGVPSRFSGSGSGTDFTLTINSLEAEDAATYYCQQSHSWPFTFGSGTNVDIKR
Regarding B1, the “EC50, L929 cytotoxicity experiment” value in assay [1] stood at 0.126 nM.

B2: KS07 (antibody, human IgG1, kappa, V domains shown)
VH: QVQLVESGGGLVKPGGSLRLSCAASGFTFSNAWMNWVRQAPGKGLEWVAEIRSKSINSATHYAESVKGRFTISRDNSKKTLYLEMNSLRVEDTAVYYCSRNYYGSTYDYWGQGTTLTVSS
VL: EIVLTQSPDFQSVTPKEKVTITCRASQSIYSSLHWYQQKPDQSPKLLIKFASQSVSGVPSRFSGSGSGTDFTLTINSLEAEDAATYYCQQSHFWPFTFGSGTNVDIKR
For B2, in assay [1], the “EC50, L929 cytotoxicity experiment” value amounted to 0.1 nM.

B3: KS-2E (Fab, V domains shown)
VH: QVQLVESGGGLVKPGGSLRLSCAASGFTFSNAWMNWVRQAPGKGLEWVAEIRSKSINSATHYAESVKGRFTISRDNSKKTLYLEMNSLRVEDTAVYYCSRNYYGSTYQYWGQGTTLTVSS
VL: EIVLTQSPDFQSVSPKETVTITCRASQTVHMSLHWYQQKPNQSPRLLIKYGSQSFSGVPSRFSGSGSGTDFTLTINSLEPEDAATYYCQQSHKWPFTFGSGTNVDIKR
notes: Humanized Fab (heavy chain Fd fragment and light chain), expressed in E. coli periplasm
Usually EC50 stands for the midpoint of the concentration-response curve. High values mean a need for much substance, low ones an effect from little substance. Take B3: in assay [2], the “EC50 (read off the curve); L929 cytotoxicity assay, inhibition rate (%)” value is ~4 nM. In assay [3], this molecule displayed a concentration giving a half-maximal response (EC50) of 6.66 nM.

B4: KS11 (antibody, human IgG1, kappa, V domains shown)
VH: QVQLVESGGGLVKPGGSLRLSCAASGFTFSNAWMNWVRQAPGKGLEWVAEIRSKSINSATHYAESVKGRFTISRDNSKKTLYLEMNSLRVEDTAVYYCSRNYYGSTYDYWGQGTTLTVSS
VL: EIVLTQSPDFQSVSPKETVTITCRASQTVHMSLHWYQQKPNQSPRLLIKYGSQSFSGVPSRFSGSGSGTDFTLTINSLEPEDAATYYCQQSHWWPFTFGSGTNVDIKR
Turning to B4, the “EC50, L929 cytotoxicity experiment” value in assay [1] stood at 0.059 nM.

B5: KS10 (Glu) (antibody, V domains shown)
VH: EVQLVESGGGLVKPGGSLRLSCAASGFTFSNAWMNWVRQAPGKGLEWVAEIRSKSINSATHYAESVKGRFTISRDDSKNTVYLQMNSLKTEDTAVYYCSRNYYGSTYDYWGQGTTLTVSS
VL: EIVLTQSPDFQSVTPKEKVTITCRASQSIYSSLHWYQQKPDQSPKLLIKFASQSVSGVPSRFSGSGSGTDFTLTINSLEAEDAATYYCQQSHWWPFTFGSGTNVDIKR
notes: Full-length IgG1 from CHO cells; VH SH01 with the first amino acid Glu, VK SH08
The Kd is the constant that tells how readily two partners part at equilibrium. The low end stands for higher affinity, the high end for lower affinity. As a reminder, the koff is the rate constant with which the complex falls apart. A high value points to fast dissociation. One may read the kon as the rate constant with which the complex forms. The low end stands for slow association, the high end for fast association. Consider B5, for which, in assay [1], the “EC50, L929 cytotoxicity experiment” value amounted to 0.028 nM. Besides, in assay [4], the equilibrium dissociation constant (Kd) is 2.18 pM, the koff turned out to be 1.02e-07 s⁻¹ and the kon stood at 46900 M⁻¹ s⁻¹.

B6: KS02 (antibody, human IgG1, kappa, V domains shown)
VH: QVQLVESGGGLVKPGGSLRLSCAASGFTFSNAWMNWVRQAPGKGLEWVAEIRSKSINSATHYAESVKGRFTISRDNSKKTLYLEMNSLRVEDTAVYYCSRNYYGSTYDYWGQGTTLTVSS
VL: EIVLTQSPDFQSVSPKETVTITCRASQTVHMSLHWYQQKPNQSPRLLIKYGSQSFSGVPSRFSGSGSGTDFTLTINSLEPEDAATYYCQQSHSWPFTFGSGTNVDIKR
B6: the “EC50, L929 cytotoxicity experiment” value in assay [1] worked out at 0.109 nM.

B7: KS12 (antibody, human IgG1, kappa, V domains shown)
VH: QVQLVESGGGLVKPGGSLRLSCAASGFTFSNAWMNWVRQAPGKGLEWVAEIRSKSINSATHYAESVKGRFTISRDNSKKTLYLEMNSLRVEDTAVYYCSRNYYGSTYDYWGQGTTLTVSS
VL: EIVLTQSPDFQSVTPKEKVTITCRASQSIYSSLHWYQQKPDQSPKLLIKFASQSVSGVPSRFSGSGSGTDFTLTINSLEAEDAATYYCQQSHWWPFTFGSGTNVDIKR
Regarding B7, the “EC50, L929 cytotoxicity experiment” value in assay [1] came out at 0.136 nM.

B8: KS08 (antibody, human IgG1, kappa, V domains shown)
VH: QVQLVESGGGLVKPGGSLRLSCAASGFTFSNAWMNWVRQAPGKGLEWVAEIRSKSINSATHYAESVKGRFTISRDNSKKTLYLEMNSLRVEDTAVYYCSRNYYGSTYDYWGQGTTLTVSS
VL: EIVLTQSPDFQSVSPKETVTITCRASQTVHMSLHWYQQKPNQSPRLLIKYGSQSFSGVPSRFSGSGSGTDFTLTINSLEPEDAATYYCQQSHFWPFTFGSGTNVDIKR
Consider B8, for which the “EC50, L929 cytotoxicity experiment” value in assay [1] came out at 0.113 nM.

Values taken from US20140086904A1 (CHENGDU KANGHONG BIOTECHNOLOGIES, published 2014).
